According to the supplement of paper PMC9233669:
Fewer inactive variants are shown than the library holds.

Experiments:
biotinyl-Met-oxazolone = experiment: self-aminoacylation, catalytic enhancement (BMO) (fold over background); higher = more active; k-Seq, kA / k0A0; sequences stand for … in GGGAAUGGAUCCACAUCUACGAAUUC…UUCACUGCAGACUUGACGAAGCUG
Outline: (§1)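 The uncatalyzed rate is the low-activity peak of a bimodal Gaussian fit, and catalytic enhancement is median kA divided by it. The kA values came from pseudo-first-order fits, with 1000 bootstraps, of per-sequence fraction reacted measured by streptavidin capture, triplicate qPCR and Illumina sequencing. Mutagenized RNA pools with a 21-nt variable region (0.43 μM) were reacted with each biotinyl-aminoacyl-oxazolone at 2–1250 μM in 50 μL HEPES/NaCl/KCl/MgCl2/CaCl2 buffer with 5% acetonitrile, pH 6.9–7.0, for 90 minutes at room temperature.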

biotinyl-Ile-oxazolone = experiment: self-aminoacylation, catalytic enhancement (BIO) (fold over background); higher = more active; k-Seq, kA / k0A0; sequences stand for … in GGGAAUGGAUCCACAUCUACGAAUUC…UUCACUGCAGACUUGACGAAGCUG
Outline: as §1

biotinyl-Phe-oxazolone = experiment: self-aminoacylation, catalytic enhancement (BFO) (fold over background); higher = more active; k-Seq, kA / k0A0; sequences stand for … in GGGAAUGGAUCCACAUCUACGAAUUC…UUCACUGCAGACUUGACGAAGCUG
Outline: as §1

biotinyl-Leu-oxazolone = experiment: self-aminoacylation, catalytic enhancement (BLO) (fold over background); higher = more active; k-Seq, kA / k0A0; sequences stand for … in GGGAAUGGAUCCACAUCUACGAAUUC…UUCACUGCAGACUUGACGAAGCUG
Outline: as §1

biotinyl-Trp-oxazolone = experiment: self-aminoacylation, catalytic enhancement (BWO) (fold over background); higher = more active; k-Seq, kA / k0A0; sequences stand for … in GGGAAUGGAUCCACAUCUACGAAUUC…UUCACUGCAGACUUGACGAAGCUG
Outline: as §1

biotinyl-Val-oxazolone = experiment: self-aminoacylation, catalytic enhancement (BVO) (fold over background); higher = more active; k-Seq, kA / k0A0; sequences stand for … in GGGAAUGGAUCCACAUCUACGAAUUC…UUCACUGCAGACUUGACGAAGCUG
Outline: as §1

Row | Sequence | self-aminoacylation (biotinyl-Met-oxazolone) | self-aminoacylation (biotinyl-Ile-oxazolone) | self-aminoacylation (biotinyl-Phe-oxazolone) | self-aminoacylation (biotinyl-Leu-oxazolone) | self-aminoacylation (biotinyl-Trp-oxazolone) | self-aminoacylation (biotinyl-Val-oxazolone)
1 | CCACACUUCCAGCAAUGGGUC [Fam1B.1 aminoacylation ribozyme variant] | 0.956 | 1.34 | 1.22 | 0.88 | 0.884 | 1.38
2 | CUACUUCAAACAGUCGGACUG [Fam1A.1 aminoacylation ribozyme variant] | 0.697 | 0.853 | 0.77 | 0.564 | 0.682 | 0.826
3 | AUUACCCUGGCCAUCGAGCGA [Fam2.1 aminoacylation ribozyme variant] | 1.61 | 2.02 | 9.68 | 1.66 | 2.39 | 1.93
4 | CCACACUUCAAGCCAUCGUUC [Fam1B.1 aminoacylation ribozyme variant] | 1.03 | 1.08 | 0.848 | 1.24 | 0.897 | 1.35
5 | AUUAACCUUGGUCAUCGGGUG [Fam2.2 aminoacylation ribozyme variant] | 6.37 | 3.91 | 41.7 | 8.28 | 7.04 | 4.16
6 | AUUACCCUGGUCAAAGAGUGA [Fam2.1 aminoacylation ribozyme variant] | 8.35 | 4 | 45.6 | 8.08 | 10.5 | 4.26
7 | CCACACGUCAAGCAAACGGUC [Fam1B.1 aminoacylation ribozyme variant] | 0.86 | 0.784 | 0.465 | 0.809 | 0.619 | 1.37
8 | AAGAUUUCUAAUAGUCGCAAG [Fam3.1 aminoacylation ribozyme variant] | 1.71 | 1.81 | 3.12 | 1.49 | 2.17 | 1.45
9 | CUACUUCAAAGAAUCGGACUG [Fam1A.1 aminoacylation ribozyme variant] | 0.91 | 0.992 | 1.29 | 0.818 | 0.932 | 0.808
10 | AUUCACUUAGGUCUUCGGGUG [Fam2.2 aminoacylation ribozyme variant] | 3.58 | 2.96 | 22.7 | 3.95 | 4.2 | 2.71
11 | ACGACCCUGGUCAUCGAGUGA [Fam2.1 aminoacylation ribozyme variant] | 6.93 | 3.57 | 9.21 | 6.52 | 7.11 | 3.77
12 | AUUCACCUAUGUCAACGGGUG [Fam2.2 aminoacylation ribozyme variant] | 2.83 | 1.83 | 16.8 | 3.35 | 2.52 | 2.01
13 | AUUGCCCUGGACAUCGAGUGA [Fam2.1 aminoacylation ribozyme variant] | 5.71 | 2.41 | 24.8 | 5.58 | 5.92 | 3.11
14 | AUUUACCUAUGUCAUCGGGUG [Fam2.2 aminoacylation ribozyme variant] | 4.35 | 3.04 | 28 | 6.5 | 4.76 | 2.96
15 | UUUCACCUAGGUGAUCGGGUG [Fam2.2 aminoacylation ribozyme variant] | 3.5 | 3.55 | 24.3 | 4.15 | 5.69 | 3.67
16 | CUACUUCAAACAAUCCGUCUU [Fam1A.1 aminoacylation ribozyme variant] | 0.764 | 0.814 | 0.785 | 0.802 | 0.691 | 0.862
17 | CGACUUCAAACAUUCGGUCUG [Fam1A.1 aminoacylation ribozyme variant] | 1.49 | 1.81 | 8.04 | 1.43 | 2.1 | 1.96
18 | AUUACCCUGUGCAUCGAGUGA [Fam2.1 aminoacylation ribozyme variant] | 6.14 | 2.47 | 16.8 | 5.11 | 5.89 | 3.05
19 | ACUACCCUGGUCAUCGAGCGA [Fam2.1 aminoacylation ribozyme variant] | 1.91 | 2.04 | 2.05 | 1.95 | 1.82 | 1.94
20 | CAUCUUCAAACAAUCGGUCUG [Fam1A.1 aminoacylation ribozyme variant] | 1.48 | 1.14 | 47 | 1.96 | 24.5 | 1.23
21 | CCACACGUCAAGCAAUAGGUC [Fam1B.1 aminoacylation ribozyme variant] | 0.765 | 0.655 | 1.1 | 0.652 | 0.587 | 0.831

Row | Sequence | self-aminoacylation (biotinyl-Met-oxazolone) | self-aminoacylation (biotinyl-Ile-oxazolone) | self-aminoacylation (biotinyl-Phe-oxazolone) | self-aminoacylation (biotinyl-Leu-oxazolone) | self-aminoacylation (biotinyl-Trp-oxazolone) | self-aminoacylation (biotinyl-Val-oxazolone)
22 | AUUCACCUAGGGCAUCGGGUA [Fam2.2 aminoacylation ribozyme variant] | 3.25 | 2.89 | 2.02 | 2.34 | 3.3 | 3.46
23 | AUUCACCUAGGACAUCGCGUG [Fam2.2 aminoacylation ribozyme variant] | 3.57 | 2.53 | 26.8 | 4.57 | 3.99 | 2.83
24 | CCACACUUCAUGCAAGCGGUC [Fam1B.1 aminoacylation ribozyme variant] | 0.854 | 1.08 | 0.633 | 1.01 | 0.681 | 0.835
25 | AUUCGCCUACGUCAUCGGGUG [Fam2.2 aminoacylation ribozyme variant] | 5.54 | 3.15 | 44.1 | 7.11 | 4.12 | 3.86
26 | CCAAGCUUCAAGCAAUCGGUC [Fam1B.1 aminoacylation ribozyme variant] | 1.51 | 1.35 | 86.5 | 2.5 | 44.9 | 1.3
27 | AUUUACCCAGGUCAUCGGGUG [Fam2.2 aminoacylation ribozyme variant] | 5.07 | 3.28 | 44.3 | 6.46 | 3.66 | 3.55
28 | CUACACUUCAAGCAAUCGGUG [Fam1B.1 aminoacylation ribozyme variant] | 3.49 | 2.71 | 5.79 | 4.94 | 4.25 | 2.61
29 | UUUCACUUAGGUCAUCGGGUG [Fam2.2 aminoacylation ribozyme variant] | 6.17 | 4.22 | 46.7 | 6.73 | 6.64 | 4.19
30 | AUUACCCCGGUCAUCGUGUGA [Fam2.1 aminoacylation ribozyme variant] | 2.63 | 1.55 | 16.2 | 2.57 | 2.98 | 1.74
31 | UUUACCCUGGUCAUCGAGCGA [Fam2.1 aminoacylation ribozyme variant] | 3.05 | 2.16 | 2.17 | 3.21 | 3.52 | 2.43
32 | CUUCACCUAGGUCAUCGCGUG [Fam2.2 aminoacylation ribozyme variant] | 12.4 | 7.29 | 96.5 | 13.6 | 10.9 | 8.89
33 | CUACUUCAAAGUAUCGGUCUG [Fam1A.1 aminoacylation ribozyme variant] | 0.824 | 0.979 | 1.44 | 0.941 | 0.979 | 0.975
34 | ACACUCUUCAAGCAAUCGGUC [Fam1B.1 aminoacylation ribozyme variant] | 0.9 | 0.997 | 4.37 | 1.11 | 2.4 | 1.08
35 | UUUACCCUGGUCUUCGAGUGA [Fam2.1 aminoacylation ribozyme variant] | 3.61 | 2.46 | 13.9 | 3.58 | 5.27 | 2.79
36 | AUUCACUUACGUCAUCGGGUG [Fam2.2 aminoacylation ribozyme variant] | 5.61 | 3.35 | 38.4 | 7.03 | 5.63 | 3.36
37 | AGUCACCUAGGUUAUCGGGUG [Fam2.2 aminoacylation ribozyme variant] | 4.56 | 4.39 | 32.2 | 4.68 | 6.62 | 4.56
38 | AAGUUUUCUAAUAGUCACAAG [Fam3.1 aminoacylation ribozyme variant] | 1.25 | 1.64 | 2.39 | 1.4 | 1.87 | 1.64
39 | AUUCCCCUAGGUUAUCGGGUG [Fam2.2 aminoacylation ribozyme variant] | 20 | 12.9 | 187 | 27.6 | 20 | 13.3
40 | GUUCACCUAGGACAUCGGGUG [Fam2.2 aminoacylation ribozyme variant] | 3.24 | 3.61 | 16.3 | 4.61 | 5.67 | 3.56
41 | CUAAUACAAACAAUCGGUCUG [Fam1A.1 aminoacylation ribozyme variant] | 0.674 | 0.676 | 0.757 | 0.477 | 0.678 | 0.682
42 | AUUUACCUAGGUCAUAGGGUG [Fam2.2 aminoacylation ribozyme variant] | 1.58 | 1.37 | 1.34 | 1.87 | 1.97 | 1.48
